Measurements taken from patent US20070248607A1, “NEGATIVE IMMUNOMODULATION OF IMMUNE RESPONSES BY NKG2D-POSITIVE CD4+ CELLS” (priority 2005, published 2007).
Entries after “also recorded” stand apart in the source; their conditions may differ. Peptide text beside a SMILES is read from it.

Experiments:
[1] = system: sMICA shedding by Hela and A375 cells; assay: Shedding of sMICA by tumor cell lines, ELISA for sMICA; assay type: cell-based; conditions: pharmacological inhibitors; U266, Hela, A375, HCT116 and Lovo cells; concentration-dependent; ELISA
[2] = target: T1, MICA tetramer (recombinant MICA*001, residues 1-276, produced in transfected 293T cells, conjugated with … (human, UniProt Q29983 24-299, highly glycosylated (293T cells); conjugated with PE-streptavidin); assay: flow cytometry, PE-streptavidin tetramers on NKL cells
T1 construct: Tags from the Invitrogen expression system are not described; also called MICA tetramers; MICA ligand tetramers
T1 sequence: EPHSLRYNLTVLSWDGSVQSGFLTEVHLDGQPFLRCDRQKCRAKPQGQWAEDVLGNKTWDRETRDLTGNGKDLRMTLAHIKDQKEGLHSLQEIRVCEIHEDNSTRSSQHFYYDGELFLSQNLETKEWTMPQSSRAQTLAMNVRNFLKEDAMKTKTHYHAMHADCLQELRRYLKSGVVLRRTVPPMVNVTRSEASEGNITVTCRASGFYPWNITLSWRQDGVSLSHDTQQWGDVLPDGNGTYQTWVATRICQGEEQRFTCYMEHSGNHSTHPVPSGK

[3] = target: the molecule itself; assay: size exclusion chromatography (self-association)
[4] = target: T2, recombinant soluble MICA (rsMICA), unglycosylated, produced in bacteria; ectodomain-only MICA
T2 chain: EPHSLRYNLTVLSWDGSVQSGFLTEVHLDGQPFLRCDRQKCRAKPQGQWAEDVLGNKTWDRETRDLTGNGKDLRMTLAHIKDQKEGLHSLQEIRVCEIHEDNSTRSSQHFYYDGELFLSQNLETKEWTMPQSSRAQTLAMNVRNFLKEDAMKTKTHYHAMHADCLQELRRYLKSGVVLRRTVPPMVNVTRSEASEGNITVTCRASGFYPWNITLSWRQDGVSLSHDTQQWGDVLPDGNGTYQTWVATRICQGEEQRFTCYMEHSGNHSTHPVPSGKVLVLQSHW

[5] = system: NKG2D- CD4+ T cells; assay: CD4 T cell proliferation (CFSE dilution, [3H]thymidine incorporation); assay type: cell-based; conditions: anti-CD3 activated CD4 T cell cultures
Description: (§1) For analysis of CD4^+ T cell proliferation in conjunction with NKG2D expression, 1×10^7 freshly isolated pure CD4^+ T cells/ml PBS were labeled with an equal volume of 2 μM CFSE (Molecular Probes) for 8 min at room temperature. CFSE was quenched with an equal volume of fetal calf serum for one min followed by three washes with AIM-V medium. CFSE labeled cells were then plated, stimulated and phenotypically analysed as described above. Additional ligands tested in this experimental setting included any of either C1R-MICB, ULBP-1, -2, -3, 4, or -5 transfectants, recombinant soluble MICB, or 5% soluble MIC containing serum from a MIC+ tumor patient and MIC− control serum. To test ligand specificity, ligand containing cultures were treated with either 10 μg/ml 6D4 (anti-MICA/B), 10 μg/ml 3F1 (anti-ULBP-1), or appropriately diluted isotype control immunoglobulins. In some experiments, ligand was replaced by solid-phase anti-NKG2D (1D11) at the concentrations ranging from 5-50 ng/ml. In some experiments, ligand/solid-phase mAb were added on day 1, 2 or 3 after the initiation of culture.
To assess inhibition of CD4^+ T cell proliferation by standard [^3H]thymidine incorporation experiments, freshly isolated pure CD4^+ T cells were plated at 1×10^5 cells/well in a 96 well flat bottom plate containing titrated cross-linked anti-CD3 (see above) or isotype control Ig with or without titrated recombinant soluble MIC. After 72 hrs at 37° C., plates were pulsed with 3 μCi of [^3H]thymidine (Perkin Elmer) for 12 hrs. Plates were harvested and samples analysed by liquid scintillation using Uni-Filter GF/C plates and a TopCount Counter (both from Packard). Counts from triplicates were averaged.

[6] = target: T3, MICA (Homo sapiens, UniProt Q29983); assay: ERP5 activity assay, disulfide reduction (non-reducing SDS-PAGE); assay type: biochemical; conditions: ectodomain MICA substrate, room temperature, 1 h or 3 h, no reducing agent
T3 sequence (Q29983 24-299): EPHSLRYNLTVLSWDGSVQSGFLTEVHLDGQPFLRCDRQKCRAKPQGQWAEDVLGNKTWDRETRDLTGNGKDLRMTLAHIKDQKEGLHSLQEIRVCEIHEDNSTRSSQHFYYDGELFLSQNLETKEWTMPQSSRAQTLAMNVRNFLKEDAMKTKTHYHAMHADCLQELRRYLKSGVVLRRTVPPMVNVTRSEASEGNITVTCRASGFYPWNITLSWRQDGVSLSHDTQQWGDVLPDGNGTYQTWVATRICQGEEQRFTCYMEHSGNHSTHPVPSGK

[7] = target: T4, MICA (Homo sapiens, UniProt Q29983); assay: as above; assay type: biochemical; conditions: isolated α3 domain (residues 187-274)
T4 sequence (Q29983 210-297): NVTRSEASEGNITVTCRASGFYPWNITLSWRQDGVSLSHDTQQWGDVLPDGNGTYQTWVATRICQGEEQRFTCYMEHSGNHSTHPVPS

[8] = system: NKG2D+ CD4+ T cells; assay: NKG2D expression and expansion of activated CD4 T cells; assay type: cell-based; conditions: anti-CD3 activated CD4 T cell cultures
Description: For the analysis of NKG2D expression in activated CD4 T cells, freshly isolated pure CD4^+ T cells were plated at 0.3×10^6/2 ml AIM-V medium (Gibco)/well in 24 well plates for various periods of time with or without the presence of mitogenic stimuli and/or the presence of NKG2D ligands. Mitogenic stimuli included either cross-linked anti-CD3 (plates were first coated with AffiniPure F(ab′)2 fragment goat anti-mouse IgG1, Fcγ fragment specific (Jackson ImmunoResearch Laboratories, Inc.) at 10 μg/ml in PBS over night at 4° C. followed by a 4 hr room temperature incubation with anti-CD3 (OKT3, Orthoclone, Ortho Biotech Products, L.P.) at 50 ng/ml (if not indicated otherwise), PHA (5 μg/ml), or PMA/Ionomycin. Ligand additions consisted of either irradiated CLR-MICA and control transfectants at a T cell:transfectant ratio of 5:1, or recombinant soluble MICA at 25 ng/ml if not indicated otherwise. Cells were harvested at various time points after the initiation of culture and tested for NKG2D, CD4 and CD3 coexpression using directly conjugated mAbs for standard three color flow cytometry.
as §1

## O=C(O)c1cc(SSc2ccc([N+](=O)[O-])c(C(=O)O)c2)ccc1[N+](=O)[O-] [DTNB, 5,5-dithiobis-(2-nitrobenzoic acid)]
[1]
  shedding of sMICA: markedly reduced; also recorded: Inhibition of sMICA shedding; also recorded: reduce shedding of sMICA

## CC[C@H](C)[C@H](N)C1=N[C@H](C(=O)N[C@@H](CC(C)C)C(=O)N[C@H](CCC(=O)O)C(=O)N[C@H](C(=O)N[C@H]2CCCCNC(=O)[C@H](CC(N)=O)NC(=O)[C@@H](CC(=O)O)NC(=O)[C@H](Cc3cnc[nH]3)NC(=O)[C@@H](Cc3ccccc3)NC(=O)[C@H]([C@@H](C)CC)NC(=O)[C@@H](CCCN)NC2=O)[C@@H](C)CC)CS1 [bacitracin] (HELM PEPTIDE1{[CC[C@H](C)[C@H](N)C1=N[C@H](C(=O)[*:2])CS1].L.[dE].I.K.[NCCC[C@@H](N[*:1])C(=O)[*:2]].I.[dF].H.[dD].N}$PEPTIDE1,PEPTIDE1,5:R3-11:R2$$$V2.0)
[1]
  shedding of sMICA: markedly reduced; also recorded: Inhibition of sMICA shedding; also recorded: reduce shedding of sMICA

B1: NKG2D (on NKL NK cells and on CD4+ T cells) (receptor, human, UniProt P26718 1-216, looked up)
chain: MGWIRGRRSRHSWEMSEFHNYNLDLKKSDFSTRWQKQRCPVVKSKCRENASPFFFCCFIAVAMGIRFIIMVTIWSAVFLNSLFNQEVQIPLTESYCGPCPKNWICYKNNCYQFFDESKNWYESQASCMSQNASLLKVYSKEDQDLLKLVKSYHWMGLVHIPTNGSWQWEDGSILSPNLLTIIEMQKGDCALYASSFKGYIENCSTPNTYICMQRTV
notes: whole, on cells; also called NKG2D receptor
[2]
  binding result: binds

B2: ERP5 fragment 135-421, bacterially produced, N-terminal hexahistidine (enzyme, UniProt Q15084 154-440, looked up)
chain: SDSSSKKDVIELTDDSFDKNVLDSEDVWMVEFYAPWCGHCKNLEPEWAAAASEVKEQTKGKVKLAAVDATVNQVLASRYGIRGFPTIKIFQKGESPVDYDGGRTRSDIVSRALDLFSDNAPPPELLEIINEDIAKRTCEEHQLCVVAVLPHILDTGAAGRNSYLEVLLKLADKYKKKMWGWLWTEAGAQSELETALGIGGFGYPAMAAINARKMKFALLKGSFSEQGINEFLRELSFGRGSTAPVGGGAFPTIVEREPWDGRDGELPVEDDIDLSDVELDDLGKDEL
notes: range 135-421; Numbers count on the mature protein; also called ERP5 135-421; not shown: N-terminal hexahistidine tract
[3]
  binding result: no binding
[4]
  disulfide bond reduction of MICA (non-reducing SDS-PAGE): only the N-terminal domain displayed functional activity

B3: soluble MICB: recombinant soluble MICB, NKG2D ligand (protein)
chain: EPHSLRYNLMVLSQDGSVQSGFLAEGHLDGQPFLRYDRQKRRAKPQGQWAEDVLGAETWDTETEDLTENGQDLRRTLTHIKDQKGGLHSLQEIRVCEIHEDSSTRGSRHFYYNGELFLSQNLETQESTVPQSSRAQTLAMNVTNFWKEDAMKTKTHYRAMQADCLQKLQRYLKSGVAIRRTVPPMVNVTCSEVSEGNITVTCRASSFYPRNITLTWRQDGVSLSHNTQQWGDVLPDGNGTYQTWVATRIRQGEEQRFTCYMEHSGNHGTHPVPSGK
[5]
  proliferation of NKG2D- CD4+ T cells: Growth inhibition

B4: ERP5 fragment 1-118 (N-terminal thioredoxin-like domain), bacterially produced, N-terminal hexahistidine (enzyme, UniProt Q15084 20-137, looked up)
chain: LYSSSDDVIELTPSNFNREVIQSDSLWLVEFYAPWCGHCQRLTPEWKKAATALKDVVKVGAVDADKHHSLGGQYGVQGFPTIKIFGSNKNRPEDYQGGRTGEAIVDAALSALRQLVKD
notes: Numbers count on the mature protein; also called N-terminal ERP5 polypeptide fragment; not shown: N-terminal hexahistidine tract
[3]
  binding result: no binding
[4]
  disulfide bond reduction of MICA (non-reducing SDS-PAGE): only the N-terminal domain displayed functional activity

B5: C36S: C36S active site mutant of ERP5 fragment 1-118 (protein)
chain: LYSSSDDVIELTPSNFNREVIQSDSLWLVEFYAPWSGHCQRLTPEWKKAATALKDVVKVGAVDADKHHSLGGQYGVQGFPTIKIFGSNKNRPEDYQGGRTGEAIVDAALSALRQLVKD
modifications: left off: small tags and cut ends
[6]
  reduction of MICA disulfide bonds: no activity

B6: C39S: C39S active site mutant of ERP5 fragment 1-118 (protein)
chain: LYSSSDDVIELTPSNFNREVIQSDSLWLVEFYAPWCGHSQRLTPEWKKAATALKDVVKVGAVDADKHHSLGGQYGVQGFPTIKIFGSNKNRPEDYQGGRTGEAIVDAALSALRQLVKD
modifications: left off: small tags and cut ends
[7]; listed as ERP5 1-118 C39S mutant polypeptide
  reduction of the MICA α3 domain disulfide bond: reduces the α3 domain disulfide bond of MICA
[7]; listed as ERP5 1-118 polypeptide fragment with the C39S mutation
  reduction of the MICA α3 domain disulfide bond: unresolved mixed disulfide heterodimer
[6]
  reduction of MICA disulfide bonds: formed a trapped disulfide-linked intermediate
[6]; listed as C39S mutant of ERP5 fragment 1-118
  reduction of MICA disulfide bonds: disulfide-linked heterodimers

B7: ERP5 fragment 1-118: N-terminal thioredoxin-like domain fragment of ERP5, residues 1-118 (protein)
chain: LYSSSDDVIELTPSNFNREVIQSDSLWLVEFYAPWCGHCQRLTPEWKKAATALKDVVKVGAVDADKHHSLGGQYGVQGFPTIKIFGSNKNRPEDYQGGRTGEAIVDAALSALRQLVKD
modifications: left off: small tags and cut ends
[6]
  reduction of MICA disulfide bonds: partially reduced

B8: ERP5 fragment 1-118 C36S mutant (protein)
chain: LYSSSDDVIELTPSNFNREVIQSDSLWLVEFYAPWSGHCQRLTPEWKKAATALKDVVKVGAVDADKHHSLGGQYGVQGFPTIKIFGSNKNRPEDYQGGRTGEAIVDAALSALRQLVKD
[4]
  disulfide bond reduction of MICA (non-reducing SDS-PAGE): C36S showed no activity on MICA substrate

B9: soluble MIC: recombinant soluble MIC ligand of NKG2D (protein)
chain: EPHSLRYNLTVLSWDGSVQSGFLTEVHLDGQPFLRCDRQKCRAKPQGQWAEDVLGNKTWDRETRDLTGNGKDLRMTLAHIKDQKEGLHSLQEIRVCEIHEDNSTRSSQHFYYDGELFLSQNLETKEWTMPQSSRAQTLAMNVRNFLKEDAMKTKTHYHAMHADCLQELRRYLKSGVVLRRTVPPMVNVTRSEASEGNITVTCRASGFYPWNITLSWRQDGVSLSHDTQQWGDVLPDGNGTYQTWVATRICQGEEQRFTCYMEHSGNHSTHPVPSGK
[8]
  expansion / proliferation of NKG2D+ CD4+ T cells: enhanced
[5]
  proliferation of NKG2D- CD4+ T cells: dramatically inhibited
